Laboratory results as given in the supplement of paper PMC10567573.

B1: GLTSCR2 (parent)
chain: FQRRNMIEPRERAKFKRKYKVKLV
B2: INTS4 (parent)
chain: TIIEPAGESDNPLRFTSGLVVALD

Variants of: B1
Experiment: protein stability index of a GFP-peptide fusion (GPS, HEK-293T) (PSI 1-6); higher = more stable
Conditions: c terminus: a fixed tail appended
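Also: lentivirally expressed fusions sorted by FACS into six bins by GFP to DsRed ratio, PSI derived from sequencing read proportions per bin multiplied by bin number.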

Protein stability index, by site and new letter:
V21: L 2.28, E 2.46, G 2.52, I 2.35, K 3.29, Q 2.81, N 2.87, A 2.67, Y 2.61, R 2.86, M 2.34, T 3.07, H 2.79, F 2.55, S 2.5, P 2.33, C 2.97, D 3.31, W 2.44
K20: Q 1.93, S 2.74, M 2.14, L 2.08, Y 1.65, T 2.34, E 3.17, C 1.93, P 1.95, F 2.52, I 2.07, D 2.09, H 2.62, V 1.99, W 2.04, G 2.22, N 2.19, R 2.1, A 3.25
K22: M 2.37, V 2.03, S 1.94, D 2.27, Y 2.08, F 1.73, Q 2.38, A 1.93, T 1.89, G 2.97, E 2.41, H 1.72, P 2.38, C 1.51, R 2.38, I 1.27, N 2.6, W 1.67, L 1.85
Y19: N 2.94, F 2.52, E 3.15, P 2.74, V 2.63, K 3.86, H 2.93, R 3.5, S 2.88, G 2.66, W 2.39, I 2.54, L 2.75, M 2.75, T 2.37, Q 2.87
L23: R 3.21, N 2.75, C 2.73, T 2.25, A 2.72, V 2.13, I 2.52, S 2.61, W 2.15, P 2.12, G 3.17, Y 2.46, M 1.69, K 2.41, D 3.1, Q 3.43, E 2.56, F 1.71, H 2.31
V24: Y 2.7, D 3.12, W 1.31, K 3.09, H 2.15, C 2.25, E 2.96, N 2.49, P 2.69, T 2.93, R 2.71, M 2.25, L 1.92, Q 2.62, F 2.54, A 2.96, I 1.91, G 2.45, S 2.62

Variants of: B2
Experiment: as above
Conditions: c terminus: a fixed tail appended

Protein stability index: each site, then its substitutions
E8: L 2.37, K 1.9, G 2.32, A 2.23, R 3.15, C 2.2, N 2.23, D 2.88, S 3.08, I 2.02, P 2.15
F15: H 4.37, E 4.63, K 3.54, V 3.97, G 4.03, P 3.9, I 3.72, T 4.3
R14: L 2.96, I 2.46, V 2.86, D 3.93, W 2.03, H 3.91, S 3.63, Q 3.26, N 3.95, G 3.25, T 2.96, K 2.77
V20: I 2.73, W 2.68, S 3.77, H 3.28, A 2.95, Y 2.44, K 3.75, N 3.46, F 2.31, R 3.38, T 3.82
L23: Q 4.56, H 3.81, A 4.1, G 4.16, K 4.07, F 2.75, D 4.53, T 3.92, S 4.35
V21: M 2.84, N 3.63, K 3.45, A 3.36, S 3.51, I 2.78, F 2.37, P 3.93, L 2.89, W 2.16, G 3.65, R 3.67, E 4.5
E4: R 2.94, L 2.33, I 1.72, H 2.55, Y 1.51, F 1.81, G 2.25, C 2.05, Q 2.84
I3: F 2.38, K 3.85, H 3.9, V 4.2, T 3.4, A 4.03, E 4.4, Q 3.45, S 4.07, P 3.42, R 3.06, L 2.76
L19: N 4.11, E 4.34, T 4.16, G 4.16, W 1.98, A 4.01, C 3.95, S 4.77
T16: L 1.99, C 1.91, S 2.88, H 2.23, V 2.01, I 2.21, Q 3.35
D24: E 2.38, K 2.19, W 2.4, T 2.2, S 2.06, A 2.75, C 1.35, Q 2.29
G7: A 3.83, H 2.73, M 2.36, I 2.84, N 2.77, L 2.67, Q 3.33, E 3.82, K 2.94, C 2.56, W 2.26
P12: S 3.13, Q 3.73, F 2.41, W 2.14, M 2.33, T 2.93, E 3.13, R 2.65, I 2.27, V 2.53
A22: S 3.2, V 1.95, H 2.78, R 2.93, W 1.87, C 2.6, I 1.61, E 4.07, K 3.21, G 2.85
D10: R 2.23, Y 1.89, Q 2.49, I 2.08, A 2.96, G 2.56, L 1.85, N 3.61, H 2.75, F 2.65
G18: C 1.66, K 2.77, I 2.4, D 3.67, Y 1.89, A 2.42, W 2.09, H 2.21, V 2.15, E 3.15, P 2.59
P5: V 2.54, L 2.76, M 1.76, W 2.53, K 2.79, G 2.78, N 2.91, Y 1.93, C 2.56
S9: Q 2.77, Y 2.48, E 3.73, D 3.29, N 3.25, H 3.17, T 2.9
I2: C 2.84, A 3.71, G 3.51, V 3.15, N 3.9, S 3.48, M 3.38
T1: F 1.83, P 3.06, L 1.83, M 1.68, K 2.68, R 2.32
L13: D 4.41, N 3.06, K 3.64, Q 3.5, S 3.86, T 4.03, F 2.33
N11: F 1.66, Q 3, Y 2.25, C 2.9, R 3.19, M 2.21, K 2.86, W 1.63, E 3.33, D 3.33
A6: F 2.52, P 2.99, V 2.62, E 3.74, K 2.98, T 2.61, M 2.63, Y 2.19
S17: H 2.5, M 1.67, A 2.51, Q 3.06, D 3.92, K 2.65, E 3.73, I 2.27, L 3.12
